Reference: patent US20110038941A1

Target: CD20 cell surface antigen (human) (UniProt P11836)
Test: flow cytometry of FAM-ODN fluorescence on Raji cells

Chain of UniProt P11836 (P11836 whole entry): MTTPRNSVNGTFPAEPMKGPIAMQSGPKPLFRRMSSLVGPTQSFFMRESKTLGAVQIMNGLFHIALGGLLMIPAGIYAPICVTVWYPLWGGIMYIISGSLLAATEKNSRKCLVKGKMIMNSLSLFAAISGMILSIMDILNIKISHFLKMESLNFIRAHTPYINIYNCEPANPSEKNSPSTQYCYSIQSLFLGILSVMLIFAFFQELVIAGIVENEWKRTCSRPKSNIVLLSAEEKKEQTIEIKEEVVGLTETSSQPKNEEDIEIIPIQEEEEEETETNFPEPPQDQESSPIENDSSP

## Rituximab (anti-CD20 antibody) conjugated cationic immunoliposomes
  fold fluorescence intensity of FAM-ODN against FAM-ODN loaded LP and Her ILP: 10 fold
  fold fluorescence intensity of FAM-ODN against free FAM-ODN: 20 fold
